Results reported in patent publication US20170247452A1 (MacroGenics, published 2017).

What was measured:
Assay in all cases: cell-based or functional assay
[1] = target: T1, human CD19 on cells (CD20+ gated blood B cells; Raji/GF, HBL-2, Jeko-1 cells; CLL B cells) (human, UniProt P15391 20-556)
T1 sequence (looked up): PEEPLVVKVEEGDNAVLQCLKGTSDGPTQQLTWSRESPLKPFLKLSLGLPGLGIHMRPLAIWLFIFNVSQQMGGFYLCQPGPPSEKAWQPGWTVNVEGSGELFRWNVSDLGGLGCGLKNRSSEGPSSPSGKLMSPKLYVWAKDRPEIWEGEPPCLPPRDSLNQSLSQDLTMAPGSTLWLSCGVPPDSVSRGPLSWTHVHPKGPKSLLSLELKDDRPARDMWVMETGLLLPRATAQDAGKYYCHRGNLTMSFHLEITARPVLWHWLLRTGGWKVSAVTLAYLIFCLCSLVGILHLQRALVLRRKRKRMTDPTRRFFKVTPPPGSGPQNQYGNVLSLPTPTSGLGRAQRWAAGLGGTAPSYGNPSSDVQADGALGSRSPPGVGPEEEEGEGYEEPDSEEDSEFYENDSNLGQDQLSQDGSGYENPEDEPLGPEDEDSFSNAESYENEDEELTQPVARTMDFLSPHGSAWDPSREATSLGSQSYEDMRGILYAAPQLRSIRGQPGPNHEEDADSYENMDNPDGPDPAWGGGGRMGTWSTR

[2] = target: T2, cynomolgus monkey CD19 on CD20+ gated blood B cells (cynomolgus monkey, UniProt A0A2K5W8L9 20-557)
T2 sequence: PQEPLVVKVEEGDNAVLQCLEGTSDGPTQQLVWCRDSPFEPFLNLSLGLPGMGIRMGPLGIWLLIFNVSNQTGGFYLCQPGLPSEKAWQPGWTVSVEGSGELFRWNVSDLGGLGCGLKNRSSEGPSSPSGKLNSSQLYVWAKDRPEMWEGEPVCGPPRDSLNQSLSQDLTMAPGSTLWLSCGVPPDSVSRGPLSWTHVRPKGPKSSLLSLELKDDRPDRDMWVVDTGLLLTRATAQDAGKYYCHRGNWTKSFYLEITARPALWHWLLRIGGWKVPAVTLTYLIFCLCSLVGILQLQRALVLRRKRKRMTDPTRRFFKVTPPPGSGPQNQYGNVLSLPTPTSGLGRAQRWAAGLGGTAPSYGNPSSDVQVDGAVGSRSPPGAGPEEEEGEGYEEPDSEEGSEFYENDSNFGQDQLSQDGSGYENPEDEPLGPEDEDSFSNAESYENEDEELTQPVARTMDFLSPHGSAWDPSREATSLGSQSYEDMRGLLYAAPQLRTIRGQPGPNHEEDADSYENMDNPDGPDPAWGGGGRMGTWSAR

[3] = target: T1, human CD19 on cells (CD20+ gated blood …); remark: listed apart in the source
[4] = target: T1, human CD19 on cells (CD20+ gated blood …); remark: listed apart in the source
[5] = target: T1, human CD19 on cells (CD20+ gated blood …); remark: listed apart in the source
[6] = target: T1, human CD19 on cells (CD20+ gated blood …); remark: listed apart in the source
[7] = target: T1, human CD19 on cells (CD20+ gated blood …); remark: listed apart in the source

B1: DART-A (CD19×CD3 bi-specific monovalent Fc diabody) (bispecific antibody)
chain 1: ENVLTQSPATLSVTPGEKATITCRASQSVSYMHWYQQKPGQAPRLLIYDASNRASGVPSRFSGSGSGTDHTLTISSLEAEDAATYYCFQGSVYPFTFGQGTKLEIKGGGSGGGGEVQLVESGGGLVQPGGSLRLSCAASGFTFSTYAMNWVRQAPGKGLEWVGRIRSKYNNYATYYADSVKGRFTISRDDSKNSLYLQMNSLKTEDTAVYYCVRHGNFGNSYVSWFAYWGQGTLVTVSSASTKGEVAACEKEVAALEKEVAALEKEVAALEKGGGDKTHTCPPCPAPEAAGGPSVFLFPPKPKDTLMISRTPEVTCVVVDVSHEDPEVKFNWYVDGVEVHNAKTKPREEQYNSTYRVVSVLTVLHQDWLNGKEYKCKVSNKALPAPIEKTISKAKGQPREPQVYTLPPSREEMTKNQVSLWCLVKGFYPSDIAVEWESNGQPENNYKTTPPVLDSDGSFFLYSKLTVDKSRWQQGNVFSCSVMHEALHNHYTQKSLSLSPGK
chain 2: QAVVTQEPSLTVSPGGTVTLTCRSSTGAVTTSNYANWVQQKPGQAPRGLIGGTNKRAPWTPARFSGSLLGGKAALTITGAQAEDEADYYCALWYSNLWVFGGGTKLTVLGGGGSGGGGQVTLRESGPALVKPTQTLTLTCTFSGFSLSTSGMGVGWIRQPPGKALEWLAHIWWDDDKRYNPALKSRLTISKDTSKNQVFLTMTNMDPVDTATYYCARMELWSYYFDYWGQGTTVTVSSASTKGKVAACKEKVAALKEKVAALKEKVAALKE
chain 3: not shown
B1 was tested. Which “EC50, autologous B cell depletion in human PBMCs, Human 5 (E:T = 8:1)” value [1] did it give?
The value was 6.27 pM.

And the “EC50, autologous B cell depletion in human PBMCs, Human 6 (E:T = 8:1)” value [1]?
The value was 2.75 pM.

And the “EC50, autologous B cell depletion in human PBMCs, Human 7 (E:T = 5:1)” value [1]?
Its value is 5.52 pM.

What about the “EC50, autologous B cell depletion in human PBMCs, Human 8 (E:T = 9:1)” value [1] of the same binder?
The value was 1.84 pM.

And the “mean EC50, autologous B cell depletion in human PBMCs” value [1]?
Its value is 4.2 pM.

What about the “EC50, autologous B cell depletion in cynomolgus monkey PBMCs, Cyno 5 (E:T = 3:1)” value [2] of the same binder?
Its value is 166 pM.

And the “EC50, autologous B cell depletion in cynomolgus monkey PBMCs, Cyno 6 (E:T = 2:1)” value [2]?
Its value is 859 pM.

And the “EC50, autologous B cell depletion in cynomolgus monkey PBMCs, Cyno 7 (E:T = 3:1)” value [2]?
The value was 107 pM.

What about the “EC50, autologous B cell depletion in cynomolgus monkey PBMCs, Cyno 8 (E:T = 7:1)” value [2] of the same binder?
Its value is 239 pM.

And the “mean EC50, autologous B cell depletion in cynomolgus monkey PBMCs” value [2]?
The value was 343 pM.

What about the “EC50, IFN-γ production, human T cells with Raji/GF cells, donor D44284, E:T = 10:1” value [3] of the same binder?
The value was 2.44 pM.

And the “EC50, IFN-γ production, human T cells with Raji/GF cells, donor D47067, E:T = 10:1” value [3]?
Its value is 8.58 pM.

And the “EC50, IL-2 production, human T cells with Raji/GF cells, donor D44284, E:T = 10:1” value [3]?
The value was 1.33 pM.

And the “EC50, IL-2 production, human T cells with Raji/GF cells, donor D47067, E:T = 10:1” value [3]?
Its value is 11.3 pM.

And the “EC50, TNF-α production, human T cells with Raji/GF cells, donor D44284, E:T = 10:1” value [3]?
Its value is 0.626 pM.

What about the “EC50, TNF-α production, human T cells with Raji/GF cells, donor D47067, E:T = 10:1” value [3] of the same binder?
The value was 6.79 pM.

What about the “EC50, redirected killing of Raji/GF cells, 24 hours, E:T = 5:1” value [4] of the same binder?
The value was 0.67 pM.

What about the “EC50, redirected killing of Raji/GF cells, 24 hours, E:T = 10:1” value [4] of the same binder?
Its value is 0.14 pM.

What about the “EC50, redirected killing of Raji/GF cells, 48 hours, E:T = 2.5:1” value [4] of the same binder?
Its value is 1.08 pM.

What about the “EC50, redirected killing of Raji/GF cells, 48 hours, E:T = 5:1” value [4] of the same binder?
Its value is 0.38 pM.

What about the “EC50, redirected killing of Raji/GF cells, 48 hours, E:T = 10:1” value [4] of the same binder?
Its value is 0.0441 pM.

And the “EC50, cytotoxicity against Raji/GF target cells with cynomolgus monkey PBMCs as effector cells (E:T = 30:1)” value [5]?
The value was 0.013 pM.

And the “average EC50 of redirected killing of HBL-2 cells, human T cells, E:T 10:1” value [5]?
The value was 0.105 pM.

And the “average EC50 of redirected killing of Jeko-1 cells, human T cells, E:T 10:1” value [5]?
The value was 0.146 pM.

And the “average EC50 of redirected killing of Raji/GF cells, human T cells, E:T 10:1” value [5]?
The value was 0.307 pM.

What about the “EC50, redirected killing of Raji/GF cells, 72 hours, E:T = 1:1” value [6] of the same binder?
Its value is 2.79 pM.

And the “EC50, redirected killing of Raji/GF cells, 72 hours, E:T = 2.5:1” value [6]?
Its value is 1.54 pM.

What about the “EC50, redirected killing of Raji/GF cells, 96 hours, E:T = 1:1” value [6] of the same binder?
The value was 0.44 pM.

What about the “EC50, redirected killing of Raji/GF cells, 96 hours, E:T = 2.5:1” value [6] of the same binder?
Its value is 0.422 pM.

And the “mean EC50, IFN-γ release, human T cells with Raji/GF cells (n = 2)” value [7]?
The value was 5.51 pM.

What about the “mean EC50, IL-2 release, human T cells with Raji/GF cells (n = 2)” value [7] of the same binder?
The value was 6.32 pM.

What about the “mean EC50, TNF-α release, human T cells with Raji/GF cells (n = 2)” value [7] of the same binder?
Its value is 3.71 pM.

And the “mean EC50, cytotoxicity, HBL-2 (n = 5), CTL assay” value [7]?
The value was 0.11 pM.

And the “mean EC50, cytotoxicity, Jeko-1 (n = 3), CTL assay” value [7]?
Its value is 0.15 pM.

And the “mean EC50, cytotoxicity, Raji/GF (n = 5), CTL assay” value [7]?
Its value is 0.31 pM.
